# In PMC3488246:
# T1: PALB2 (UniProt Q86YC2 1-1186)
# T1 sequence: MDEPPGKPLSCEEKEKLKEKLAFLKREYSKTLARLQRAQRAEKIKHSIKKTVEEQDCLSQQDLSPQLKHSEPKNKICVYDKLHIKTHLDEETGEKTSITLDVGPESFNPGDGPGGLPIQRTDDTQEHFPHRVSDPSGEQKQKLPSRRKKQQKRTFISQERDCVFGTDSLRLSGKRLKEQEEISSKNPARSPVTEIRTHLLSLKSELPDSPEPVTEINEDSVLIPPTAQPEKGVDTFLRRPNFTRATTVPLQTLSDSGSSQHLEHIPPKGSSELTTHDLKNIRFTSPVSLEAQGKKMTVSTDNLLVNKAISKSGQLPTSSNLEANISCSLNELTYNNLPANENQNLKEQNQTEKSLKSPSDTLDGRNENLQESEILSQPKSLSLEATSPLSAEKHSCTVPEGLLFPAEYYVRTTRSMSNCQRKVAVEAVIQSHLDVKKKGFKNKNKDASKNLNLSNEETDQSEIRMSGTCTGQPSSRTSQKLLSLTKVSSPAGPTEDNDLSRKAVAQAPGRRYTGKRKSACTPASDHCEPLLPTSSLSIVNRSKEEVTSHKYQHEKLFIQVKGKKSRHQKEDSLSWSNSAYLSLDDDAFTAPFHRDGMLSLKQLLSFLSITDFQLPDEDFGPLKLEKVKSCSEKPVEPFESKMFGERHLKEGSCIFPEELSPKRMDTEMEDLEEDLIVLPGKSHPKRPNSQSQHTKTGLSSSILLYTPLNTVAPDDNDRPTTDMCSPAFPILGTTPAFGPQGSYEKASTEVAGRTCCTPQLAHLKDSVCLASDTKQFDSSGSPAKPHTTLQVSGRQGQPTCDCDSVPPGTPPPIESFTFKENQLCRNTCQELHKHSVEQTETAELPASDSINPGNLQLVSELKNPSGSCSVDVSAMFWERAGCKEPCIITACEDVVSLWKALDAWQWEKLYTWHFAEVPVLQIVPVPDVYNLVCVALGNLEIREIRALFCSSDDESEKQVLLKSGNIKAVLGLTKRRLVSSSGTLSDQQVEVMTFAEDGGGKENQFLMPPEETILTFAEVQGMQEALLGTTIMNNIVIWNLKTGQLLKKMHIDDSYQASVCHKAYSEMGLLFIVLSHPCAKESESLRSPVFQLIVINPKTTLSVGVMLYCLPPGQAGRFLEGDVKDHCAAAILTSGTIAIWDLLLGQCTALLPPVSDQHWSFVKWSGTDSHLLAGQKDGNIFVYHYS
# T2: PALB2Δ1-40 (UniProt Q86YC2 41-1186, del1-40)
# T2 sequence: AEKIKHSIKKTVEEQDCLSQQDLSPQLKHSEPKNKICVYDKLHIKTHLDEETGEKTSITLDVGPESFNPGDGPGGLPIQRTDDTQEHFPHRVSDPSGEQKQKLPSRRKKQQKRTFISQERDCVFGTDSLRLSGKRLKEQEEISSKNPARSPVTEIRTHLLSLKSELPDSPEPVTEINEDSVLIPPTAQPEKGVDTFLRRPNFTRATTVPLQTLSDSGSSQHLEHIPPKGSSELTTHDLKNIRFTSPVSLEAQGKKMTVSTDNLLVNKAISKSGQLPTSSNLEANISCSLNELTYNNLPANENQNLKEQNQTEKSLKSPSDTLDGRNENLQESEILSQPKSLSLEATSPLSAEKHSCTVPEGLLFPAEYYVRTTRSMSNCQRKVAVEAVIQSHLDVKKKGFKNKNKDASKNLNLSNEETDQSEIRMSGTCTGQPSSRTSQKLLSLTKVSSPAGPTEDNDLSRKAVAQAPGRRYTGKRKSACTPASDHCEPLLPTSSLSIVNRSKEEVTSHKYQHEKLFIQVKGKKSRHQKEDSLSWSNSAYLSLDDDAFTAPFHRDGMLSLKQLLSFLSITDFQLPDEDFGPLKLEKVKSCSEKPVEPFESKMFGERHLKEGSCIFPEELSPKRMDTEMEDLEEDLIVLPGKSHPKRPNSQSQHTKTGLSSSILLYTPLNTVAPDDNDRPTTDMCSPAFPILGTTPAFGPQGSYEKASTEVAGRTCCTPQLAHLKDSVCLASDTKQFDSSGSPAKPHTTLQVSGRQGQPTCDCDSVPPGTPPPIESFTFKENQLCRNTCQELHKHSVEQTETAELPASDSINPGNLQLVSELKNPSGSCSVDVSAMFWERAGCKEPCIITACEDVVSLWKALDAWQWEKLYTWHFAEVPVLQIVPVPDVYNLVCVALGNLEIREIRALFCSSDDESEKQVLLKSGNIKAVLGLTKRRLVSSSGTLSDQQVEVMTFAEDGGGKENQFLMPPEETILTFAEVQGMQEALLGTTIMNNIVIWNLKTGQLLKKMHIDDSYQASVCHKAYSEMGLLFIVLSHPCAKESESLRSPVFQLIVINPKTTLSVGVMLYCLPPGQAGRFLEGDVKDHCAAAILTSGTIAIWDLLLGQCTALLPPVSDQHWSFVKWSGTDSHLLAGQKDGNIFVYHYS
# B1: 60 nt ssDNA (ssDNA)
# DNA: GGGTGAACCTGCAGGTGGGCAAAGATGTCCTAGCAATGTAATCGTCAAGCTTTATGCCGT
# Key:
# PALB2 = target: T1, PALB2; test: EMSA
# PALB2Δ1-40 = target: T2, PALB2Δ1-40; test: EMSA
binder,measurement,setting,value
B1,binding result,PALB2,binds
same,binding signal,PALB2Δ1-40,~5 fold stronger affinity than PALB2
